The results in this text go back to patent US20100086958A1, “NOVEL ENZYME” (priority 2008, published 2010).

What all share (type): biochemical
The nature of series [1]: Cytochrome P450 BM3/BspFDH2 coupled oxidation of 1-propylbenzene with NADPH regeneration. As for the experimental part:
(Li, Q.-S. et al., FEBS Letters 508, 249-252 (2001)) In this oxygen C—H reaction (FIG. 4a), one oxygen atom from an atmospheric O2 molecule is reduced to water by NADPH leaving the other ready for delivery to substrate. All P450's are NADPH-dependent. NADP^+ thus formed is then regenerated to NADPH by the action of BspFDH2 using formate. The overall atomic transformation is therefore the splitting of O2- with a hydride ion from formate using NADP^+ as a hydride shuttle.
200 μL of 1-propylbenzene (1a above, 1M in DMSO), sodium formate (3 M, 2 mL) and bovine serum albumin (100 mg/mL, 1 mL) were added in potassium phosphate buffer (100 mM, pH 7.6, 2 mL) and the reaction mixture was shaken for 3 min. NADP^+ (10 mM, 1 mL) and BspFDH2 (17 mg/mL, 500 μL) were added and the reaction shaken for 30 minutes at room temperature. After 30 minutes, wild type cytochrome P450-BM3 (WT P450 BM3, 2.4 mg/mL, 300 μL) was added and the reaction shaken at room temperature. The reaction was monitored by GC-MS (Rt˜3.2 minutes). After 15 hr, the reaction mixture was extracted by DCM (3×1 mL) and the combined organic phase was dried and the solvent removed to afford 1-phenylpropan-1-ol (2a above, >99% conversion based on GC chromatogram). […]

Series [2] in a line: Cyclohexanone monooxygenase (CHMO)/BspFDH2 coupled Baeyer-Villiger oxidation of cyclohexanone. The note with it: coupled with CHMO. How it is done:
By coupling the enzymatic action of BspFDH2 with that of cyclohexanone monooxygenase (CHMO), oxygen C—C bond insertion, a Baeyer-Viliger (B-V) oxidation (see FIG. 4b), converted (>99% conversion, complete within 4 hours) cyclohexanone (3) to caprolactone (4) with NADPH regeneration.
NADP+ (20 mM, 1 mL) and BspFDH2 (17 mg/mL, 500 μL) were then added and the reaction shaken for 30 minutes at room temperature. After 30 minutes, pre-dialysed CHMO (2 mg/mL, 300 μL) was then added and the reaction shaken at 37° C. The reaction was monitored by GC-MS (Rt˜3.1 minutes). After 4 hr, the reaction mixture was extracted by DCM (3×1 mL) and the combined organic phase was dried and the solvent removed to afford oxepan-2-one (4 above, >99% conversion based on GC chromatogram).

Series [3] can be described thus: Ketoreductase (KRED101)/BspFDH2 coupled reduction of ethyl 4-chloro-3-oxobutanoate. How it is done: NADP^+ (10 mM, 1 mL) and BspFDH2 (17 mg/mL, 500 μL) were then added and the reaction shaken for 30 minutes at room temperature. After 30 minutes, KRED101 (40 mg/mL, 300 μL) was added. The reaction was monitored by GC-MS (Rt˜3.1 minutes). After 15 hr, the reaction mixture was extracted by DCM (3×1 mL) and combined organic phases were dried and the solvent removed to afford ethyl 4-chloro-3-hydroxybutanoate (6 above, >99% conversion based on GC chromatogram and HPLC). The GC-MS data were collected as example 1a. Chiral HPLC was performed on a Chiralcel OB packed column (0.46 cm I.D.×25 cm L; Daicel Chemical Industries, Japan) at 217 nm, with an eluent of n-hexane/2-propanol (9.3:0.7, v/v) at a flow rate of 1 mL/min. IR, vmax (thin film), 3600-3100 (br, O—H), 1731 (s, C═O) cm^−1. ^1H-NMR (400 MHz, Chloroform-d): δ ppm 1.29 (t, J=7.07 Hz, 3H), 2.55-2.70 (m, 2H), 3.62 (dd, J=5.31, 2.78 Hz, 2H) 4.19 (q, J=7.07 Hz, 2H), 4.23-4.30 (m, 1H). ^13C-NMR (400 MHz, Chloroform-d): δ ppm 14.11, 38.41, 48.11, 61.01, 67.92, 171.78. GC-MS (CI^+): m/z Calcd for C6H12O3Cl [M+H]+=167, C6H15O3Cl [M+NH4]^+=184; Found: 167 (M+H)^+, 184 (M+NH4)^+. HPLC-UV/Vis: (tR=7.9 minutes, tS=9.4 minutes), >99% e.e. of S.
D-(S)-4-chloro-3-hydroxybutanoate ethyl ester is a key chiral pharmaceutical intermediate used in the enantioselective synthesis of, for example, slagenin B and C and HMG-CoA reductase inhibitors. […]

Some results are limits rather than exact numbers.

B1: Bsp383FDH: wild type FDH from Burkholderia sp 383, Seq ID No: 1, C-terminal His-tagged (protein, listed as Burkholderia sp.)
chain: MATVLCVLYPDPVDGYPPRYVRDAIPVITHYADGQTAPTPAGPPGFQPGELVGCVSGALGLRGYMEAHGHTLIVTSDKDSPDSEFERRLPEADVVISQPFWPAYLTAERIARAPKLKLALTAGIGSDHVDLDAAARARITVAEVTGSNSISVAEHVVMTTLALVRNYLPSHAIAQQGGWNIADCVSRSYDVEGMHFGTVGAGRIGLAVLRRLKPFGLQLHYTQRHRLDASIEQELGLTYHADAASLASAVDIVNLQIPLYPSTEHLFDAAMIARMKRGAYLINTARAKLVDRDAVVNALTSGHLAGYGGDVWFPQPAPADHPWRTMPFNGMTPHISGTSLSAQARYAAGTLEILQCWFDGKPIRNEYLIVDGGTLAGTGAQSYRLT
modifications: C-terminal His tag
Turning to B1, the reaction complete within in series [1] (coupled with cytochrome P450 BM-3) is no more than 2 h; in series [2] it was no more than 4 h; in series [3] (coupled with KRED101), no more than 30 min. In addition, in series [1] (coupled with cytochrome P450 BM-3, NADPH regeneration from formate, GC), the “conversion of propylbenzene to 1-phenyl-1-propanol” value was greater than 99%. For the same molecule, in series [2] (NADPH regeneration, GC), the “conversion of cyclohexanone to caprolactone (oxepan-2-one)” value was greater than 99%. Besides, the “conversion of ethyl 4-chloro-3-oxobutanoate to ethyl 4-chloro-3-hydroxybutanoate” value in series [3] (coupled with KRED101, NADPH regeneration, GC and HPLC) is recorded as greater than 99%.
